B1: Protein regulator of cytokinesis 1 (Homo sapiens), O43663 (parent)
chain: MRRSEVLAEESIVCLQKALNHLREIWELIGIPEDQRLQRTEVVKKHIKELLDMMIAEEESLKERLIKSISVCQKELNTLCSELHVEPFQEEGETTILQLEKDLRTQVELMRKQKKERKQELKLLQEQDQELCEILCMPHYDIDSASVPSLEELNQFRQHVTTLRETKASRREEFVSIKRQIILCMEALDHTPDTSFERDVVCEDEDAFCLSLENIATLQKLLRQLEMQKSQNEAVCEGLRTQIRELWDRLQIPEEEREAVATIMSGSKAKVRKALQLEVDRLEELKMQNMKKVIEAIRVELVQYWDQCFYSQEQRQAFAPFCAEDYTESLLQLHDAEIVRLKNYYEVHKELFEGVQKWEETWRLFLEFERKASDPNRFTNRGGNLLKEEKQRAKLQKMLPKLEEELKARIELWEQEHSKAFMVNGQKFMEYVAEQWEMHRLEKERAKQERQLKNKKQTETEMLYGSAPRTPSKRRGLAPNTPGKARKLNTTTMSNATANSSIRPIFGGTVYHSPVSRLPPSGSKPVAASTCSGKKTPRTGRHGANKENLELNGSILSGGYPGSAPLQRNFSINSVASTYSEFAKDPSLSDSSTVGLQRELSKASKSDATSGILNSTNIQS
B2: Protein ECT2 (Homo sapiens), Q9H8V3-4 (parent)
chain: MAENSVLTSTTGRTSLADSSIFDSKVTEISKENLLIGSTSYVEEEMPQIETRVILVQEAGKQEELIKALKDIKVGFVKMESVEEFEGLDSPEFENVFVVTDFQDSVFNDLYKADCRVIGPPVVLNCSQKGEPLPFSCRPLYCTSMMNLVLCFTGFRKKEELVRLVTLVHHMGGVIRKDFNSKVTHLVANCTQGEKFRVAVSLGTPIMKPEWIYKAWERRNEQDFYAAVDDFRNEFKVPPFQDCILSFLGFSDEEKTNMEEMTEMQGGKYLPLGDERCTHLVVEENIVKDLPFEPSKKLYVVKQEWFWGSIQMDARAGETMYLYEKANTPELKKSVSMLSLNTPNSNRKRRRLKETLAQLSRETDVSPFPPRKRPSAEHSLSIGSLLDISNTPESSINYGDTPKSCTKSSKSSTPVPSKQSARWQVAKELYQTESNYVNILATIIQLFQVPLEEEGQRGGPILAPEEIKTIFGSIPDIFDVHTKIKDDLEDLIVNWDESKSIGDIFLKYSKDLVKTYPPFVNFFEMSKETIIKCEKQKPRFHAFLKINQAKPECGRQSLVELLIRPVQRLPSVALLLNDLKKHTADENPDKSTLEKAIGSLKEVMTHINEDKRKTEAQKQIFDVVYEVDGCPANLLSSHRSLVQRVETISLGEHPCDRGEQVTLFLFNDCLEIARKRHKVIGTFRSPHGQTRPPASLKHIHLMPLSQIKKVLDIRETEDCHNAFALLVRPPTEQANVLLSFQMTSDELPKENWLKMLCRHVANTICKADAENLIYTADPESFEVNTKDMDSTLSRASRAIKKTSKKVTRAFSFSKTPKRALRRALMTSHGSVEGRSPSSNDKHVMSRLSSTSSLAGIPSPSLVSLPSFFERRSHTLSRSTTHLI
partner: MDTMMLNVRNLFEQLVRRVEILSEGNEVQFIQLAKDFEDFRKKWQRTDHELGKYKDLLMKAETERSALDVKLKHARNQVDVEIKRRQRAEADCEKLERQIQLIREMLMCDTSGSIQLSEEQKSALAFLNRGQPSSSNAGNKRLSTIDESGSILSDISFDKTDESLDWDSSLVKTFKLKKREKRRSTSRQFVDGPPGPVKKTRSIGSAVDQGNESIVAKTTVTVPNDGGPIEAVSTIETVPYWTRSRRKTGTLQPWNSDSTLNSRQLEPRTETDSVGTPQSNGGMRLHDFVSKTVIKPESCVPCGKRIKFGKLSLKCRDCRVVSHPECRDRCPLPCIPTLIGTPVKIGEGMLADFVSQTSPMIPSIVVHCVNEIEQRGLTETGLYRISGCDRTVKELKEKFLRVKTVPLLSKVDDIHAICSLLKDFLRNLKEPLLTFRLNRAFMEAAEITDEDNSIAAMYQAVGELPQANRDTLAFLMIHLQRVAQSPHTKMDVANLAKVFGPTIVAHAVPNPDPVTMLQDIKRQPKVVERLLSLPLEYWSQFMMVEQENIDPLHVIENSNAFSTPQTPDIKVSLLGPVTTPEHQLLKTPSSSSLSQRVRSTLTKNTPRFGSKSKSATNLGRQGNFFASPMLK
B3: Rac GTPase-activating protein 1 (Homo sapiens), Q9H0H5 (parent)
chain: B2 partner
partner: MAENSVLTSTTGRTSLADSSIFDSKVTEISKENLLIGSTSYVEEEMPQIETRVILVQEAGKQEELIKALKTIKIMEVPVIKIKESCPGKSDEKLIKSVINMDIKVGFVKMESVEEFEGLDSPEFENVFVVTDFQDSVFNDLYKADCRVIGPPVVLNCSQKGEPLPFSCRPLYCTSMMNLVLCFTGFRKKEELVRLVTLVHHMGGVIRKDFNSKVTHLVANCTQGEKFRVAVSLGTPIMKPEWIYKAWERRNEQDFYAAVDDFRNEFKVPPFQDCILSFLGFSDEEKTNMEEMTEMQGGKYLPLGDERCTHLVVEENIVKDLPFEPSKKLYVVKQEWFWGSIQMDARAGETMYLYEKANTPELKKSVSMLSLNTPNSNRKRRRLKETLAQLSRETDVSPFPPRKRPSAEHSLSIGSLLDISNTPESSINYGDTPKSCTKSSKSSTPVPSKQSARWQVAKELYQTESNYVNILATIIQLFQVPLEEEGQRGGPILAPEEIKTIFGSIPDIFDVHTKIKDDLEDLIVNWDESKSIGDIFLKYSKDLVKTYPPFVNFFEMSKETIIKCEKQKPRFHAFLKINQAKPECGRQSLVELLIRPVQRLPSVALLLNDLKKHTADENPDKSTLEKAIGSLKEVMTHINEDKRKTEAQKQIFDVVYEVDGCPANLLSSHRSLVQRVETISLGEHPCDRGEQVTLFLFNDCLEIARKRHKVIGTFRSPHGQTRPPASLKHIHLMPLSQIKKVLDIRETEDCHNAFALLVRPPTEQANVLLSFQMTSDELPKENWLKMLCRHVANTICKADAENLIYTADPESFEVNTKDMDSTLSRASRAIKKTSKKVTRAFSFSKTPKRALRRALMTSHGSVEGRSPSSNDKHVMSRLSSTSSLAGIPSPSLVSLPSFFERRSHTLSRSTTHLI

Variants of: B1
Details: with plk1_human PLK1, P53350
plk1_human PLK1, P53350, sequence (P53350 whole entry): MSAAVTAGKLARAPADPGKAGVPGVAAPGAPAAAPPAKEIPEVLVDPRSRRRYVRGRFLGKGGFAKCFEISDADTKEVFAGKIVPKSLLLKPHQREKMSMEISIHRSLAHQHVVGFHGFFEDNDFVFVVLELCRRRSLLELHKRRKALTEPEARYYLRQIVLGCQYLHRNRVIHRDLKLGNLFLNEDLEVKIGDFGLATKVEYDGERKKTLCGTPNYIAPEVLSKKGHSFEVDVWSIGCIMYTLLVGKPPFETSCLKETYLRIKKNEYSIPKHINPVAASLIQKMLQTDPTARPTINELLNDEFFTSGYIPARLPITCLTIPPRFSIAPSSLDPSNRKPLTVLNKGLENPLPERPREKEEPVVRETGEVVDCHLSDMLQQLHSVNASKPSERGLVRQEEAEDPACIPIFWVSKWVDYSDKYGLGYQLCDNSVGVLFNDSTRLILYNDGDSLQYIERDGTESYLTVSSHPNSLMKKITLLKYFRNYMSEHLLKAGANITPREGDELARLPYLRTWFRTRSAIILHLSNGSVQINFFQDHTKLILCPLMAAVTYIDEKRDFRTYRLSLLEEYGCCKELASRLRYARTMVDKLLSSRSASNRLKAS

Row | Variant | effect of a mutation on the interaction
1 | S615A;T616A | disrupting interaction strength

Variants of: B2
Details: with rgap1_human RACGAP1, Q9H0H5

Row | Variant | effect of a mutation on the interaction
2 | T153A | disrupting interaction strength
3 | T153A;K195A | disrupting interaction strength
4 | K195A | disrupting interaction

Variants of: B3
Details: with ect2_human ECT2, Q9H8V3

Row | Variant | effect of a mutation on the interaction
5 | S149A;S157A;S164A;S170A | disrupting interaction
